Measured values: patent US20200095569A1

Columns and labels:
[1] = target: NLS-iLID-GFP-ferritin (Gallus gallus; human) (UniProt P02794); experiment: cell-based or functional assay
[2] = target: NLS-iLID-iLID-GFP-ferritin (Gallus gallus; human) (UniProt P02794); experiment: cell-based or functional assay

mean mCherry intensity in locally activated droplets relative to nucleoplasm [1]: 100 fold
mCherry fluorescence at core based droplets after light activation (live cell confocal imaging) [2]: 15 s
Substance: FUS(1-214)-mCherry-sspB (from UniProt P0AFZ3 6-116)
